Laboratory results taken from patent publication US20250019439A1 (Adimab, published 2025).

Key:
ADI-70326 = molecular target: T1, ADI-70326; assay: SPR Carterra, yeast anti-ID
T1 construct: anti-CD3 antibody made in CHO cells, captured by anti-human Fc
Procedure: (§1) Kinetic analysis was conducted at 25° C. in an HBSTE running buffer system (Carterra Cat #3630) using a Carterra LSA (Carterra USA, Salt Lake City, UT). The sample compartment was maintained at 20° C. for the duration of each experiment.
(§2) For antibody capture experiments, a goat anti-human Fc antibody (Jackson ImmunoResearch) was covalently coupled to an HC30M sensor chip surface via standard amine coupling (1:1 EDC:NHS) and then blocked with ethanolamine (1.0 M, pH 8.5). Covalent coupling steps were performed in 25 mM MES buffer (Carterra, Cat #3625) plus 0.05% Tween20. The anti-CD3 antibodies (100 nM in running buffer) were flowed over discrete regions of interest on the chip surface for 5 minutes. […] Dissociation of the anti-idiotype antibodies was monitored for 300s. Several blank buffer samples were injected over the entire chip surface at the start of each non-regenerative kinetic cycle. The preceding blank buffer injection was used for blank surface subtraction. At the end of each non-regenerative kinetic cycle, all surfaces were regenerated via two 30s injections of 10 mM glycine, pH 1.7.
(§3) For data processing and fitting, sensorgrams were double reference subtracted with a baseline drift correction of 4 RU. Sensorgrams were y-aligned and baseline corrected, filtered and cropped to include only the association and dissociation steps. Data was fitted to a 1:1 binding model using Carterra Kinetics Data Analysis software version 1.7.1.3055.

ADI-70327 = molecular target: T2, ADI-70327; assay: SPR Carterra, yeast anti-ID
T2 construct: anti-CD3 antibody made in CHO cells, captured by anti-human Fc
Procedure: as §1, §2, §3

ADI-70330 = molecular target: T3, ADI-70330; assay: SPR Carterra, yeast anti-ID
T3 construct: anti-CD3 antibody made in CHO cells, captured by anti-human Fc
Procedure: as §1, §2, §3

ADI-67445 = molecular target: T4, ADI-67445; assay: SPR Carterra, yeast anti-ID
T4 construct: anti-CD3 antibody made in CHO cells, captured by anti-human Fc
Procedure: as §1, §2, §3

ADI-26909 = molecular target: T5, ADI-26909; assay: SPR Carterra, yeast anti-ID
T5 construct: anti-CD3 antibody made in CHO cells, captured by anti-human Fc
Procedure: as §1, §2, §3

ADI-26921 IgG = molecular target: T6, ADI-26921 IgG; assay: SPR Carterra, yeast anti-ID
T6 construct: anti-CD3 IgG
Procedure: as §1, §2, §3

ADI-26915 = molecular target: T7, ADI-26915; assay: SPR Carterra, yeast anti-ID
T7 construct: anti-CD3 antibody made in CHO cells, captured by anti-human Fc
Procedure: as §1, §2, §3

ADI-48587 = molecular target: T8, ADI-48587; assay: SPR Carterra, yeast anti-ID
T8 construct: pH-dependent anti-CD3 antibody made in CHO cells
Procedure: as §1, §2, §3

ADI-74967 = molecular target: T9, ADI-74967; assay: SPR Carterra, yeast anti-ID
T9 construct: pH-dependent anti-CD3 antibody made in CHO cells
Procedure: as §1, §2, §3

CTL-62223 = molecular target: T10, CTL-62223; assay: SPR Carterra, yeast anti-ID
T10 construct: also called mosunetuzumab
Procedure: as §1, §2, §3

CTL-62227 = molecular target: T11, CTL-62227; assay: SPR Carterra, yeast anti-ID
T11 construct: also called odronextamab
Procedure: as §1, §2, §3

CTL-62228 = molecular target: T12, CTL-62228; assay: SPR Carterra, yeast anti-ID
T12 construct: also called glofitamab
Procedure: as §1, §2, §3

CTL-62240 = molecular target: T13, CTL-62240; assay: SPR Carterra, yeast anti-ID
T13 construct: also called ONO-4685
Procedure: as §1, §2, §3

ADI-50024 = molecular target: T14, ADI-50024; assay: SPR Carterra avidity, yeast anti-ID
T14 construct: anti-CD3 antibody made in CHO cells, captured by anti-human Fc
Procedure: as §1, §2, §3

ADI-67450 = molecular target: T15, ADI-67450; assay: SPR Carterra avidity, yeast anti-ID
T15 construct: anti-CD3 antibody made in CHO cells, captured by anti-human Fc
Procedure: as §1, §2, §3

ADI-67447 = molecular target: T16, ADI-67447; assay: SPR Carterra avidity, yeast anti-ID
T16 construct: anti-CD3 antibody made in CHO cells, captured by anti-human Fc
Procedure: as §1, §2, §3

ADI-26919 = molecular target: T17, ADI-26919; assay: SPR Carterra avidity, yeast anti-ID
T17 construct: anti-CD3 antibody made in CHO cells, captured by anti-human Fc
Procedure: as §1, §2, §3

ADI-26916 IgG = molecular target: T18, ADI-26916 IgG; assay: SPR Carterra avidity, yeast anti-ID
T18 construct: anti-CD3 IgG
Procedure: as §1, §2, §3

ADI-26912 = molecular target: T19, ADI-26912; assay: SPR Carterra avidity, yeast anti-ID
T19 construct: anti-CD3 antibody made in CHO cells, captured by anti-human Fc
Procedure: as §1, §2, §3

ADI-26924 = molecular target: T20, ADI-26924; assay: SPR Carterra avidity, yeast anti-ID
T20 construct: anti-CD3 antibody made in CHO cells, captured by anti-human Fc
Procedure: as §1, §2, §3

ADI-48576 = molecular target: T21, ADI-48576; assay: SPR Carterra avidity, yeast anti-ID
T21 construct: pH-dependent anti-CD3 antibody made in CHO cells
Procedure: as §1, §2, §3

ADI-48592 = molecular target: T22, ADI-48592; assay: SPR Carterra avidity, yeast anti-ID
T22 construct: pH-dependent anti-CD3 antibody made in CHO cells
Procedure: as §1, §2, §3

ADI-48650 = molecular target: T23, ADI-48650; assay: SPR Carterra avidity, yeast anti-ID
T23 construct: pH-dependent anti-CD3 antibody made in CHO cells
Procedure: as §1, §2, §3

ADI-74965 = molecular target: T24, ADI-74965; assay: SPR Carterra avidity, yeast anti-ID
T24 construct: pH-dependent anti-CD3 antibody made in CHO cells
Procedure: as §1, §2, §3

ADI-74966 = molecular target: T25, ADI-74966; assay: SPR Carterra avidity, yeast anti-ID
T25 construct: pH-dependent anti-CD3 antibody made in CHO cells
Procedure: as §1, §2, §3

ADI-74968 = molecular target: T26, ADI-74968; assay: SPR Carterra avidity, yeast anti-ID
T26 construct: pH-dependent anti-CD3 antibody made in CHO cells
Procedure: as §1, §2, §3

ADI-76358 = molecular target: T27, ADI-76358; assay: SPR Carterra avidity, yeast anti-ID
T27 construct: anti-CD3 antibody made in CHO cells, captured by anti-human Fc
Procedure: as §1, §2, §3

ADI-76359 = molecular target: T28, ADI-76359; assay: SPR Carterra avidity, yeast anti-ID
T28 construct: anti-CD3 antibody made in CHO cells, captured by anti-human Fc
Procedure: as §1, §2, §3

ADI-76360 = molecular target: T29, ADI-76360; assay: SPR Carterra avidity, yeast anti-ID
T29 construct: anti-CD3 antibody made in CHO cells, captured by anti-human Fc
Procedure: as §1, §2, §3

ADI-76361 = molecular target: T30, ADI-76361; assay: SPR Carterra avidity, yeast anti-ID
T30 construct: anti-CD3 antibody made in CHO cells, captured by anti-human Fc
Procedure: as §1, §2, §3

ADI-76362 = molecular target: T31, ADI-76362; assay: SPR Carterra avidity, yeast anti-ID
T31 construct: anti-CD3 antibody made in CHO cells, captured by anti-human Fc
Procedure: as §1, §2, §3

ADI-22523 Fab = molecular target: T32, ADI-22523 Fab; assay: BLI; tip anti-ID IgG, solution ADI-22523 Fab
T32 construct: anti-CD3 Fab by papain digestion of the IgG
Procedure: (§4) ForteBio affinity measurements were performed generally as previously described (Estep et al., MAbs. 2013 5(2):270-8). Briefly, ForteBio affinity measurements were performed by loading antibody IgG or Fabs on-line onto AHC sensors. Sensors were equilibrated off-line in assay buffer for 30 minutes and then monitored on-line for 60 seconds for baseline establishment. For avid binding measurement, sensors with loaded antibodies were exposed to IgG or Fab solutions for 3 minutes, afterwards they were transferred to assay buffer for 3 minutes for off-rate measurement. Kinetics data were fit using a 1:1 binding model in the data analysis software provided by ForteBio to obtain equilibrium dissociation constant (KD=koff/kₒₙ) values. In each column, tip-immobilized antibodies are listed first and solution antibodies second.

ADI-22523 IgG = molecular target: T33, ADI-22523 IgG; assay: BLI; tip anti-ID IgG, solution ADI-22523 IgG
T33 construct: anti-CD3 IgG
Procedure: as §4

ADI-26906 IgG = molecular target: T34, ADI-26906 IgG; assay: SPR Carterra avidity, yeast anti-ID, *koff limit
T34 construct: anti-CD3 IgG
Procedure: as §1, §2, §3

ADI-26913 IgG = molecular target: T35, ADI-26913 IgG; assay: SPR Carterra avidity, yeast anti-ID, *koff limit
T35 construct: anti-CD3 IgG
Procedure: as §1, §2, §3

ADI-26920 IgG = molecular target: T36, ADI-26920 IgG; assay: SPR Carterra avidity, yeast anti-ID, *koff limit
T36 construct: anti-CD3 IgG
Procedure: as §1, §2, §3

ADI-26943 = molecular target: T37, ADI-26943; assay: SPR Carterra avidity, yeast anti-ID, *koff limit
T37 construct: anti-CD3 antibody made in CHO cells, captured by anti-human Fc
Procedure: as §1, §2, §3

ADI-76357 = molecular target: T38, ADI-76357; assay: SPR Carterra avidity, yeast anti-ID, *koff limit
T38 construct: anti-CD3 antibody made in CHO cells, captured by anti-human Fc
Procedure: as §1, §2, §3

T38 sequence (VH, as listed by the source, chain 1 of 2): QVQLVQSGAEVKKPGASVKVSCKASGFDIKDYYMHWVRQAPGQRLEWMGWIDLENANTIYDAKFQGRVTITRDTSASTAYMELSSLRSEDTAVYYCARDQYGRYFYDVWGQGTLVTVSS
T38 sequence (VL, as listed by the source, chain 2 of 2): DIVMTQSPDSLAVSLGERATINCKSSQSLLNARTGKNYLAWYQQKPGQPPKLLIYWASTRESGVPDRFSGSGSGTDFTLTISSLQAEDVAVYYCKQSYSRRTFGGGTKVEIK
T5 sequence (VH, as listed by the source limits assumed, chain 1 of 2): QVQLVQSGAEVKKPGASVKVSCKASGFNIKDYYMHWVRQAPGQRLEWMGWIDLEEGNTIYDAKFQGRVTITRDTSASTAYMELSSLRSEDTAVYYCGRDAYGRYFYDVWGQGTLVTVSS
T23 sequence (VH, as listed by the source, chain 1 of 2): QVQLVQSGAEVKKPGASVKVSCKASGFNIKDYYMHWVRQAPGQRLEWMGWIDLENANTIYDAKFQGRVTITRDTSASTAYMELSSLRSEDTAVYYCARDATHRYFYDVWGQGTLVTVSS
T23 sequence (VL, as listed by the source, chain 2 of 2): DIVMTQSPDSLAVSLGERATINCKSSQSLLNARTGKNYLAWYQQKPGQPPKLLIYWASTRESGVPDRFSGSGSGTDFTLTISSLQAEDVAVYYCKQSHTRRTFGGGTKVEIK
T30 sequence (VH, as listed by the source, chain 1 of 2): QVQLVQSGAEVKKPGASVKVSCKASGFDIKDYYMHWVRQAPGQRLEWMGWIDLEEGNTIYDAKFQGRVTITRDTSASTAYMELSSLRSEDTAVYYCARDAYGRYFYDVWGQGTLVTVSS
T30 sequence (VL, as listed by the source, chain 2 of 2): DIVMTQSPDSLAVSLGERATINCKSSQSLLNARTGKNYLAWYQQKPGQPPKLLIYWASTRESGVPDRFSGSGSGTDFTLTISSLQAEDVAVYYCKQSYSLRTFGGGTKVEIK
T35 sequence (VH, as listed by the source limits assumed, chain 1 of 2): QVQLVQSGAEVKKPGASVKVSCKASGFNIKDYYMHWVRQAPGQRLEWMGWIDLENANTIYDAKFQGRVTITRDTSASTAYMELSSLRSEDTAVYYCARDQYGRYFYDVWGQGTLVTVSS
T36 sequence (VH, as listed by the source limits assumed, chain 1 of 2): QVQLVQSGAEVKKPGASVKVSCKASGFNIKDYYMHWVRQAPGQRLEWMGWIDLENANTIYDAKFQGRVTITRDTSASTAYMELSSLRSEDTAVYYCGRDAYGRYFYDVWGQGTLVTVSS
T37 sequence (VH, as listed by the source, chain 1 of 2): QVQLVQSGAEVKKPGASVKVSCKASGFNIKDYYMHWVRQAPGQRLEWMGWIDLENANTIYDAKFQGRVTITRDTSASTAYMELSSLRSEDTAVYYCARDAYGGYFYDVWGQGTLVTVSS
T37 sequence (VL, as listed by the source, chain 2 of 2): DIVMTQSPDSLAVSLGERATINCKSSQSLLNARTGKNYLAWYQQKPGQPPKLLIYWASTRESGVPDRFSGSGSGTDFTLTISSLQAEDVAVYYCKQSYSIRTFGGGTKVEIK
T15 sequence (VH, as listed by the source limits assumed, chain 1 of 2): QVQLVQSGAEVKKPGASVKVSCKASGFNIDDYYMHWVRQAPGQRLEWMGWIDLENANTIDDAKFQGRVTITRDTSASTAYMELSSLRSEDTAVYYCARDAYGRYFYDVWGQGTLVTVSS
T19 sequence (VH, as listed by the source, chain 1 of 2): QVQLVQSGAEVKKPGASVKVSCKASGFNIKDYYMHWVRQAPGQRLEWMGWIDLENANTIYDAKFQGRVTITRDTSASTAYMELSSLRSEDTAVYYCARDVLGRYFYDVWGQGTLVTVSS
T3 sequence (VH, as listed by the source limits assumed, chain 1 of 2): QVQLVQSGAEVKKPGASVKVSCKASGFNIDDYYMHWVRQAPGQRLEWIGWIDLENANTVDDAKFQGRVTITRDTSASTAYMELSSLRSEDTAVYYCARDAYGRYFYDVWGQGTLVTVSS
T3 sequence (VL, as listed by the source limits assumed, chain 2 of 2): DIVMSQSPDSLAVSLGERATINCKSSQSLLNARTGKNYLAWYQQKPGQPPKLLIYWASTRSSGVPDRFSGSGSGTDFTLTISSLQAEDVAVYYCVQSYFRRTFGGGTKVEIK
T34 sequence (VH, as listed by the source limits assumed, chain 1 of 2): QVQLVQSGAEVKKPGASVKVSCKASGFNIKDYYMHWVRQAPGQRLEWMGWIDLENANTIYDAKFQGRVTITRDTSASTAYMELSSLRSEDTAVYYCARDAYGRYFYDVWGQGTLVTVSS
T16 sequence (VH, as listed by the source limits assumed, chain 1 of 2): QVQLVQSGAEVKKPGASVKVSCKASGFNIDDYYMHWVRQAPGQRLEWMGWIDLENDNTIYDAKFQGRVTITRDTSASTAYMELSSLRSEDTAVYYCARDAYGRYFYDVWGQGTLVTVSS
T1 sequence (VH, as listed by the source limits assumed, chain 1 of 2): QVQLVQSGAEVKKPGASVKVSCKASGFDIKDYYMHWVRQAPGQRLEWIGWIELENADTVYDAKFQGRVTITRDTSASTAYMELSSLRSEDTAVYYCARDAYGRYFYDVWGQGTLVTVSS
T21 sequence (VH, as listed by the source, chain 1 of 2): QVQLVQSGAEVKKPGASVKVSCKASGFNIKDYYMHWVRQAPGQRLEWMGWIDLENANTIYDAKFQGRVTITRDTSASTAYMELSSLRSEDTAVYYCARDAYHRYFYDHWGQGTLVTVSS
T21 sequence (VL, as listed by the source, chain 2 of 2): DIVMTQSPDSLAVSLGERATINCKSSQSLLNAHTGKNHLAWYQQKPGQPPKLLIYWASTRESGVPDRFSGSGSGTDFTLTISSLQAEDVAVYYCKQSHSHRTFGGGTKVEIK
T31 sequence (VH, as listed by the source, chain 1 of 2): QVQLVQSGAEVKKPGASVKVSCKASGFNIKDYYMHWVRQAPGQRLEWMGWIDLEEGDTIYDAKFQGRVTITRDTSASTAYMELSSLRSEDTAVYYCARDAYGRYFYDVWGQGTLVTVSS
T28 sequence (VH, as listed by the source, chain 1 of 2): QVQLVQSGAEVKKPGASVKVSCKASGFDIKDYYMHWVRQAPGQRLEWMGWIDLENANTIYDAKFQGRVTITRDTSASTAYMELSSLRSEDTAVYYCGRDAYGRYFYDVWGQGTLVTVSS
T14 sequence (VH, as listed by the source limits assumed, chain 1 of 2): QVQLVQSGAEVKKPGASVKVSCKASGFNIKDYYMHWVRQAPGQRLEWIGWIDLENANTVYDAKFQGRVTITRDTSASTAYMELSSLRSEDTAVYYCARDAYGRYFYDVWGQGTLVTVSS

B1: ADI-34144 (antibody, V domains shown)
VH: EVQLLESGGGLVQPGGSLRLSCAASGFTFSSYAMSWVRQAPGKGLEWVSTISGSGGSTYYADSVKGRFTISRDNSKNTLYLQMNSLRAEDTAVYYCARLGGRRGSGSSYYYYYGMDVWGQGTTVTVSS
VL: not shown
notes: anti-ID IgG
Question: Does B1 bind (ADI-70326)?
Answer: Result: no binding (tested: up to 200 nM)

Question: Does B1 bind (ADI-70327)?
Answer: Result: no binding (tested: up to 200 nM)

Question: Does B1 bind (ADI-70330)?
Answer: Result: no binding (tested: up to 200 nM)

Question: Does B1 bind (ADI-67445)?
Answer: Result: no binding (tested: up to 200 nM)

Question: Does B1 bind (ADI-26909)?
Answer: Result: no binding (tested: up to 200 nM)

Question: Does B1 bind (ADI-26921 IgG)?
Answer: Result: no binding (tested: up to 200 nM)

Question: Does B1 bind (ADI-26915)?
Answer: Result: no binding (tested: up to 200 nM)

Question: Does B1 bind (ADI-48587)?
Answer: Result: no binding (tested: up to 200 nM)

Question: Does B1 bind (ADI-74967)?
Answer: Result: no binding (tested: up to 200 nM)

Question: Does B1 bind (CTL-62223)?
Answer: Result: no binding (tested: up to 200 nM)

Question: Does B1 bind (CTL-62227)?
Answer: Result: no binding (tested: up to 200 nM)

Question: Does B1 bind (CTL-62228)?
Answer: Result: no binding (tested: up to 200 nM)

Question: Does B1 bind (CTL-62240)?
Answer: Result: no binding (tested: up to 200 nM)

Question: Does B1 bind (ADI-50024)?
Answer: Result: binds

Question: Does B1 bind (ADI-67450)?
Answer: Result: binds

Question: What about the Kd (ADI-67447) of the same binder?
Answer: The Kd was 22 nM.

Question: What about the Kd (ADI-26919) of the same binder?
Answer: The Kd was 32 nM.

Question: And the Kd (ADI-26916 IgG)?
Answer: The Kd was 16 nM.

Question: Does B1 bind (ADI-26912)?
Answer: Result: binds

Question: What about the Kd (ADI-26924) of the same binder?
Answer: The Kd was 4.9 nM.

Question: Does B1 bind (ADI-48576)?
Answer: Result: binds

Question: Does B1 bind (ADI-48592)?
Answer: Result: binds

Question: Does B1 bind (ADI-48650)?
Answer: Result: binds

Question: Does B1 bind (ADI-74965)?
Answer: Result: binds

Question: And the Kd (ADI-74966)?
Answer: Its Kd is 59 nM.

Question: What about the Kd (ADI-74968) of the same binder?
Answer: The Kd was 72 nM.

Question: Does B1 bind (ADI-76358)?
Answer: Result: binds

Question: What about the Kd (ADI-76359) of the same binder?
Answer: The Kd was 17 nM.

Question: Does B1 bind (ADI-76360)?
Answer: Result: binds

Question: Does B1 bind (ADI-76361)?
Answer: Result: binds

Question: Does B1 bind (ADI-76362)?
Answer: Result: binds

Question: And the Kd (ADI-22523 Fab)?
Answer: The Kd was 6.17 nM.

Question: And the Kd (ADI-22523 IgG)?
Answer: Its Kd is 2.6 nM.

Question: What about the Kd (ADI-26906 IgG) of the same binder?
Answer: The Kd was 12 nM.

Question: What about the Kd (ADI-26913 IgG) of the same binder?
Answer: Its Kd is 8.6 nM.

Question: And the Kd (ADI-26920 IgG)?
Answer: Its Kd is 7.5 nM.

Question: And the Kd (ADI-26943)?
Answer: Its Kd is 5.1 nM.

Question: What about the Kd (ADI-76357) of the same binder?
Answer: Its Kd is 6.3 nM.
